Experimental data taken from article PMC6824681, “Phosphoproteomics reveals that the hVPS34 regulated SGK3 kinase specifically phosphorylates endosomal proteins including Syntaxin-7, Syntaxin-12, RFIP4 and WDR44” (Biochemical Journal, 2019).

T1: GFP-STX12 wild type (Syntaxin-12) (human, UniProt Q86Y82 1-276)
T1 construct: Syntaxin-12 (STX12), human; After IGF1 stimulation about 20% of the stably expressed protein was phosphorylated (Ser139) by phos-tag analysis; also called GFP-STX12 WT; wild-type STX12
T1 sequence (looked up): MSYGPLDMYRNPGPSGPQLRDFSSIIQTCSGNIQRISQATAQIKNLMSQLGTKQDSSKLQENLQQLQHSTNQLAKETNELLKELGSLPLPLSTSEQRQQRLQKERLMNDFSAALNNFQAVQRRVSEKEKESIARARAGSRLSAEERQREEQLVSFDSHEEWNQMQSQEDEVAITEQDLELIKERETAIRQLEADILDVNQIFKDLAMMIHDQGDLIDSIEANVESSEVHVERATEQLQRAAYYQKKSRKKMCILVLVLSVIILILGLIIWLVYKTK

B1: VTI1A (natural protein, human (endogenous in HEK293), UniProt Q96AJ9 1-217, looked up)
chain: MSSDFEGYEQDFAVLTAEITSKIARVPRLPPDEKKQMVANVEKQLEEAKELLEQMDLEVREIPPQSRGMYSNRMRSYKQEMGKLETDFKRSRIAYSDEVRNELLGDDGNSSENQRAHLLDNTERLERSSRRLEAGYQIAVETEQIGQEMLENLSHDREKIQRARERLRETDANLGKSSRILTGMLRRIIQNRILLVILGIIVVITILMAITFSVRRH
notes: Vti1a (VTI1A), endogenous in HEK293 cells, detected by immunoblot with anti-VTI1A; source: endogenous, HEK293 lysate
B2: VAMP4 (natural protein, human (endogenous in HEK293), UniProt O75379 1-141, looked up)
chain: MPPKFKRHLNDDDVTGSVKSERRNLLEDDSDEEEDFFLRGPSGPRFGPRNDKIKHVQNQVDEVIDVMQENITKVIERGERLDELQDKSESLSDNATAFSNRSKQLRRQMWWRGCKIKAIMALVAAILLLVIIILIVMKYRT
notes: VAMP4, endogenous in HEK293 cells, detected by immunoblot with anti-VAMP4; also called v-SNARE protein VAMP4; source: endogenous, HEK293 lysate
B3: Syntaxin 6 (STX6) (natural protein, human (endogenous in HEK293), UniProt O43752 1-255, looked up)
chain: MSMEDPFFVVKGEVQKAVNTAQGLFQRWTELLQDPSTATREEIDWTTNELRNNLRSIEWDLEDLDETISIVEANPRKFNLDATELSIRKAFITSTRQVVRDMKDQMSTSSVQALAERKNRQALLGDSGSQNWSTGTTDKYGRLDRELQRANSHFIEEQQAQQQLIVEQQDEQLELVSGSIGVLKNMSQRIGGELEEQAVMLEDFSHELESTQSRLDNVMKKLAKVSHMTSDRRQWCAIAILFAVLLVVLILFLVL
notes: Syntaxin-6 (STX6), endogenous in HEK293 cells, detected by immunoblot with anti-STX6; source: endogenous, HEK293 lysate

Biological target: T1, GFP-STX12 wild type (Syntaxin-12)
Assay: co-IP; GFP-STX12 WT or S139A immunoprecipitated from 2 mg lysate with GFP-Trap beads, 4°C, 4 h; two washes with lysis buffer with 0.45 M NaCl, one with 0.15 M NaCl; immunoblot of endogenous partners; cells serum-starved overnight, ± 14H (1 µM, 1 h), ± IGF1 (50 ng/ml, 15 min)
Details: partners not purified

| Binder | fold increase of the amount co-immunoprecipitated, IGF1-stimulated against unstimulated cells |
| --- | --- |
| B1 | ~2 fold |
| B2 | ~2 fold |
| B3 | ~2 fold |
